The target in this assay is Borrelia burgdorferi hybrid histidine kinase Hk1 periplasmic sensor domain D1 (Borrelia burgdorferi strain 5A4 NP1). The assay is described as follows: SEC.

Data on 1 substance can be found in publication PMC4605270.

Broadly, the stoichiometry N is the number of molecules, sites or subunits per partner or assembly.

Turning to “Borrelia burgdorferi hybrid histidine kinase Hk1 periplasmic sensor domain D1 (domain or fragment)”, the stoichiometry N was found to be 2.
